T1: Recombinant human CD40L (human, UniProt P29965 108-261, limits assumed)
T1 construct: also called CD40 ligand
T1 sequence (looked up): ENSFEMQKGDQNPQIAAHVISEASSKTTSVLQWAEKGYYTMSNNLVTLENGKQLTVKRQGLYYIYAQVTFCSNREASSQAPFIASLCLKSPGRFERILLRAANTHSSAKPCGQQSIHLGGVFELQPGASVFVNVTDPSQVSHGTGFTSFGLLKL

B1: DOM.181 (other)
VH: EVQLLESGGGLVQPGGSLRLSCAASGFTFAFYPMMWVRQAPGKGLEWVSWIDATGTRTYYADSVKGRFTISRDNSKNTLYLQMNSLRAEDTAVYYCAEGNYGSSYTMGVFDYWGQGTLVTVSS
notes: VH dAb
B2: DOM.141 (other)
VL: DIQMTQSPSSLSASVGDRVTITCRASQWIGDTLTWYQQKLGKAPKLLIYGGSELQSGVPPRFSGSGSGTDFTLTISSLQPEDFATYYCQQCISSPCTFGQGTKVEIKR
notes: Vk dAb
B3: DOM.189 (other)
VH: EVQLLESGGGLVQPGGSLRLSCAASGFTFQMYPMGWVRQAPGKGLEWVSMIEPAGDLTYYADSVKGRFTISRDNSKNTLYLQMNSLRAEDTAVYYCAKYQEQPWFDYWGQGTLVTVSS
notes: VH dAb
B4: DOM.123 (other)
VH: EVQLLESGGGLVQPGGSLRLSCAASGFTFIEYPMRWVRQAPGKGLEWVSLISPSGVFTYYADSVKGRFTISRDNSKNTLYLQMNSLRAEDTAVYYCAKGDESSTFDYWGQGTLVTVSS
notes: VH dAb
B5: DOM.149 (other)
VL: DIQMTQSPSSLSASVGDRVTITCRASQWIGRQLVWYQQKPGKAPKLLIYGATELQSGVPSRFSGSGSGTDFTLTISSLQPEDFATYYCQQQSKGPLTFGHGTKVEIKR
notes: Vk dAb
B6: DOM.136 (other)
VH: EVQLLESGGGLVQPGGSLRLSCAASGFTFDGYRMGWVRQAPGKGLEWVSSIAPDGNYTYYADSVKGRFTISRDNSKNTLYLQMNSLRAEDTAVYYCAKFWGMQFDYWGQGTLVTVSS
notes: VH dAb
B7: DOM.182 (other)
VH: EVQLLESGGGLVQPGGSLRLSCAASGFTFDEYPMYWVRQAPGKGLEWVSSIGPSGPNTYYADSVKGRFTISRDNSKNTLYLQMNSLRAEDTAVYYCAKSPYFDVIPSYFDYWGQGTLVTVSS
notes: VH dAb
B8: DOM.146 (other)
VL: DIRMTQSPSSLSASVGDRVTITCRASQWIGDSLAWYQQKPGKAPKLLIYGISELQSGVPSRFSGSGSGTDFTLTISSLQPEDSATYYCQLSSSMPHTFGQGTKVEIKR
notes: Vk dAb
B9: DOM.133 (other)
VH: EVQLLESGGGLVQPGGSLRLSCAASGFTFIGYAMAWVRQAPGKGLEWVSSIGPLGATTYYADSVKGRFTISRDNSKNTLYLQMNSLRAEDTAVYYCAKLPAGTSSHSVDFDYWGQGTLVTVSS
notes: VH dAb
B10: DOM.115 (other)
VH: EVQLLESGGGLVQPGGSLRLSCAASGFSISYKNMAWVRQAPGKGLEWVSAIKAANGSTYYADSVKGRFTISRDNSKNTLYLQMNSLRAEDTAVYYCATGSQKKRTYTFDFWGQGTLVTVSS
B11: DOM.191 (other)
VH: EVQLLESGGGLVQPGGSLRLSCAASGFTFKLYPMTWVRQAPGKGLEWVSSIDAGGHETYYADSVKGRFTISRDNSKNTLYLQMNSLRAEDTAVYYCAKDWWDYLFDYWGQGTLVTVSS
notes: VH dAb
B12: DOM.183 (other)
VH: EVQLLESGGGLVQPGGSLRLSCAASGFTFADYGMGWVRQAPGKGLEWVSSIQSSGLRTYYADSVKGRFTISRDNSKNTLYLQMNSLRAEDTAVYYCAKRANSRRGFDYWGQGTLVTVSS
notes: VH dAb
B13: DOM.124 (other)
VH: EVQLLESGGGLVQPGGSLRLSCAASGFTFKRYDMDWVRQAPGKGLEWVSTIGSSGYPTYYADSVKGRFTISRDNSKNTLYLQMNSLRAEDTAVYYCAERMPGYFPGFARQFDYWGQGTLVTVSS
notes: VH dAb
B14: DOM.135 (other)
VH: EVQLLESGGGLVQPGGSLRLSCAASGFTFRRYVMGWVRQAPGKGLEWVSWIEADGRTTYYADSVKGRFTISRDNSKNTLYLQMNSLRAEDTAVYYCAKGLTDQHVIEFDYWGQGTLVTVSS
notes: VH dAb
B15: DOM.125 (other)
VH: EVQLLESGGGLVQPGGSLRLSCAASGFTFWRYAMGWVRQAPGKGLEWVSTINDEGRETYYADSVKGRFTISRDNSKNTLYLQMNSLRAEDTAVYYCAKKRVSSSVNAPYEFDYWGQGTLVTVSS
notes: VH dAb
B16: DOM.177 (other)
VH: EVQLLESGGGLVQPGGSLRLSCAASGFTFSNYYMVWVRQAPGKGLEWVSAIDEWGFATYYADSVKGRFTISRDNSKNTLYLQMNSLRAEDTAVYYCAKHWEFTSDTSRFDYWGQGTLVTVSS
notes: VH dAb
B17: DOM.139 (other)
VH: EVQLLESGGGLVQPGGSLRLSCAASGFTFSNYEMGWVRQAPGKGLEWVSVISEVGSLTYYADSVKGRFTISRDNSKNTLYLQMNSLRAEDTAVYYCAKPHDSSIGFDYWGQGTLVTVSS
notes: VH dAb
B18: DOM.132 (other)
VH: EVQLLESGGGLVQPGGSLRLSCAASGFTFADYDMAWVRQAPGKGLEWVSGIVDDGLMTYYADSVKGRFTISRDNSKNTLYLQMNSLRAEDTAVYYCAKPDVAFDYWGQGTLVTVSN
notes: VH dAb
B19: DOM.188 (other)
VH: EVQLLESGGGLVQPGGSLRLSCAASGFTFTRYRMSWVRQAPGKGLEWVSGISRDGYRTYYADSVKGRFTISRDNSKNTLYLQMNSLRAEDTAVYYCAKGMTASFDYWGQGTLVTVSS
notes: VH dAb
B20: DOM.192 (other)
VH: EVQLLESGGGLVQPGGSLRLSCAASGFTFSRYPMSWVRQAPGKGLEWVSSINRSGMRTYYADSVKGRFTISRDNSKNTLYLQMNSLRAEDTAVYYCAEGHQAPFDYWGQGTLVTVSS
notes: VH dAb
B21: DOM.187 (other)
VH: EVQLLESGGGLVQPGGSLRLSCAASGFTFSSYSMVWVRQAPGKGLEWVSGINRGGTRTYYADSVKGRFTISRDNSKNTLYLQMNSLRAEDTAVYYCAKGWRRGFDYWGQGTLVTVSS
notes: VH dAb
B22: DOM.137 (other)
VH: EVQLLESGGGLVQPGGSLRLSCAASGFTFASYPMGWVRQAPGKGLEWVSSIGPIGFTTYYADSVKGRFTISRDNSKNTLYLQMNSLRAEDTAVYYCAEMKSPYKPQFDYWGQGTLVTVSS
notes: VH dAb
B23: DOM.176 (other)
VH: EVQLLESGGGLVQPGGSLRLSCAASGFTFDAYEMGWVRQAPGKGLEWVSIIDWDGNSTYYADSVKGRFTISRDNSKNTLYLQMNSLRAEDTAVYYCAKPGDNVGIFDYWGQGTLVTVSS
notes: VH dAb
B24: DOM.145 (other)
VL: DIQMTQSPSSLSASVGDRVTITCRASQTIYTSLSWYQQKPGKAPKLLIHYGSVLQSGVPSRFSGSGSGTDFTLTISSLQPEDSATYYCQQVHQAPTTFGQGTKVEIKR
notes: Vk dAb
B25: DOM.185 (other)
VH: EVQLLESGGGLVQPGGSLRLSCAASGFTFAHYPMSWVRQAPGKGLEWVSSIGRLGNRTYYADSVKGRFTISRDNSKNTLYLQMNSLRAEDTAVYYCAKRATPVPIKGLFDYWGQGTLVTVSS
notes: VH dAb
B26: DOM.120 (other)
VH: EVQLLESGGGLVQPGGSLRLSCAASGFTFRSYTMGWVRQAPGKGLEWVSSINPMGYQTYYADSVKGRFTISRDNSKNTLYLQMNSLRAEDTAVYYCAKHGVGKGTKPHNFDYWGQGTLVTVSS
notes: VH dAb
B27: DOM.126 (other)
VH: EVQLLESGGGLVQPGGSLRLSCAASGFTFANYSMSWVRQAPGKGLEWVSSIDRLGTHTYYADSVKGRFTISRDNSKNTLYLQMNSLRAEDTAVYYCAKVLADLIAGHAEFDYWGQGTLVTVSS
notes: VH dAb
B28: DOM.197 (other)
VH: EVQLLESGGGLVQPGGSLRLSCAASGFTFAKYKMWWVRQAPGKGLEWVSSITPKGHSTYYADSVKGRFTISRDNSKNTLYLQMNSLRAEDTAVYYCAKRPMTPFDYWGQGTLVTVSS
notes: VH dAb
B29: DOM.127 (other)
VH: EVQLLESGGGLVQPGGSLRLSCAASGFTFPSYDMAWVRQAPGKGLEWVSGISRSGSMTYYADSVKGRFTISRDNSKNTLYLQMNSLRAEDTAVYYCAKGVDAHVYYMEPFFDYWGQGTLVTVSS
notes: VH dAb
B30: DOM.195 (other)
VH: EVQLLESGGGLVQPGGSLRLSCAASGFTFGTYDMGWVRQAPGKGLEWVSRINWQGDRTYYADSVKGRFTISRDNSKNTLYLQMNSLRAEDTAVYYCAKAGFGHYVDGLGFDYWGQGTLVTVSS
notes: VH dAb
B31: DOM.194 (other)
VH: EVQLLESGGGLVQPGGSLRLSCAASGFTFKQYDMRWVRQAPGKGLEWVSTISQNGTKTYYADSVKGRFTISRDNSKNTLYLQMNSLRAEDTAVYYCAKSRTGRYFDYWGQGTLVTVSS
notes: VH dAb
B32: DOM.138 (other)
VH: EVQLLESGGGLVQPGGSLRLSCAASGFTFLAYWMVWVRQAPGKGLEWVSSISPSGTHTYYADSVKGRFTISRDNSKNTLYLQMNSLRVEDTAVYYCAKYTEPGLGSFDYWGQGTLVTVSS
notes: VH dAb
B33: DOM.121 (other)
VH: EVQLLESGGGLVQPGGSLRLSCAASGFTFELYRMSWVRQAPGKGLEWVSEISGSGFPTYYADSVKGRFTISRDNSKNTLYLQMNSLRAEDTAVYYCAKSLHDKTQHHQEFDYWGQGTLVTVSS
notes: VH dAb

Target: T1, Recombinant human CD40L
Experiment: CD40L/CD40-Fc receptor binding assay;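 note: plate assay with coated human CD40-Fc, bound ligand detected via HRP anti-biotin antibody and TMB, OD at 450 nm, lower signal indicates stronger inhibition by dAb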
Protocol: A 96 well Nunc Maxisorp assay plate was coated overnight at 4° C. with 100 μl per well of recombinant human CD40/Fc (R&D Systems) at 0.5 μg/ml in carbonate buffer. The plate was washed 3 times with 300 μl of 0.05% Tween/PBS and 3 times with 300 μl of PBS using a Tecan plate washer. The wells were blocked using 200 μl of PBS containing 2% (w/v) BSA and incubated for a minimum of 1 h at room temperature. The wells were washed as above, then 50 μl of purified dAb protein (or unpurified supernatant containing dAb from a micro-culture expression) was added to each well.
The plate was washed as described above, then 100 μl HRP conjugated anti-biotin antibody (1:5000 dilution in diluent) added to each well and the plate incubated for 1 hr at room temperature. The plate was washed again as described above using a Tecan plate washer and the assay developed using 100 μl of SureBlue 1-Component TMB MicroWell Peroxidase solution (the plate was left at room temperature for up to 20 min). The reaction was stopped by the addition of 100 μl M hydrochloric acid. The OD₄₅₀ₙₘ of the plate was assayed within 30 minutes of acid addition. The OD₄₅₀ₙₘ is proportional to the amount of bound streptavidin-HRP conjugate, therefore the greater the degree of dAb inhibition the lower the OD₄₅₀ₙₘ of the resulting signal.

Binding result, binds:
B1
B2
B3
B4
B5
B6
B7
B8
B9
B10
B11
B12
B13
B14
B15
B16
B17
B18
B19
B20
B21
B22
B23
B24
B25
B26
B27
B28
B29
B30
B31
B32
B33
